Assay results published in US20150315292A1 (VANDERBILT UNIVERSITY, published 2015).

Legend:
[1] = target: T1, human fXII with the kringle domain replaced with the corresponding domain from HGFA (human, UniProt P00748 20-216; Q04756 286-367; P00748 296-615, limits assumed); assay: Western blot after SDS-PAGE
T1 construct: Expressed in human fibroblasts (HEK293) and blotted from conditioned medium; also called fXII/HGFA kringle domain chimera; KNG
T1 sequence (looked up): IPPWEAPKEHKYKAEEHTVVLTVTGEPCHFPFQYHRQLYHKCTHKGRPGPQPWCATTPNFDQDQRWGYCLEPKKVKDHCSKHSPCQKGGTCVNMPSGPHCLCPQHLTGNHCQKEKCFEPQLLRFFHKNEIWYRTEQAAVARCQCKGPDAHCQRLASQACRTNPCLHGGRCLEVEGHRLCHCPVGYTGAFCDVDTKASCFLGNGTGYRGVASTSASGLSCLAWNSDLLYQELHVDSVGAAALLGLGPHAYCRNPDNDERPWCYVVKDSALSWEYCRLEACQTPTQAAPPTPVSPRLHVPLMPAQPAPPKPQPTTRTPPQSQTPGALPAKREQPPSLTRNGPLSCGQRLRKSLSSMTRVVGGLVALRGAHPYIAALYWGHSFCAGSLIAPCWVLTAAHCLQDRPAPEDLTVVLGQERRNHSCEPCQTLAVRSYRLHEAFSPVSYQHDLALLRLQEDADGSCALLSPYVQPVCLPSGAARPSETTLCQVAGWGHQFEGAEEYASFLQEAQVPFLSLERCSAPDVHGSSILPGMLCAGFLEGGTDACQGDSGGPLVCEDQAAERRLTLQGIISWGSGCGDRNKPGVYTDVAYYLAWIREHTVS
Source text: (§1) AB043 and AB042 both recognize baboon and human fXII, indicating they can be used for studies in baboon thrombosis models. […] Chimeras in which individual fXII domains were replaced with those of HGFA were expressed in human fibroblasts.

[2] = target: T2, human fXII with the EGF2 domain replaced with the corresponding domain from HGFA (human, UniProt P00748 20-173; Q04756 241-279; P00748 211-615, limits assumed); assay: Western blot after SDS-PAGE
T2 construct: Expressed in human fibroblasts (HEK293) and blotted from conditioned medium; also called fXII/HGFA chimera for the EGF2 domain
T2 sequence (looked up): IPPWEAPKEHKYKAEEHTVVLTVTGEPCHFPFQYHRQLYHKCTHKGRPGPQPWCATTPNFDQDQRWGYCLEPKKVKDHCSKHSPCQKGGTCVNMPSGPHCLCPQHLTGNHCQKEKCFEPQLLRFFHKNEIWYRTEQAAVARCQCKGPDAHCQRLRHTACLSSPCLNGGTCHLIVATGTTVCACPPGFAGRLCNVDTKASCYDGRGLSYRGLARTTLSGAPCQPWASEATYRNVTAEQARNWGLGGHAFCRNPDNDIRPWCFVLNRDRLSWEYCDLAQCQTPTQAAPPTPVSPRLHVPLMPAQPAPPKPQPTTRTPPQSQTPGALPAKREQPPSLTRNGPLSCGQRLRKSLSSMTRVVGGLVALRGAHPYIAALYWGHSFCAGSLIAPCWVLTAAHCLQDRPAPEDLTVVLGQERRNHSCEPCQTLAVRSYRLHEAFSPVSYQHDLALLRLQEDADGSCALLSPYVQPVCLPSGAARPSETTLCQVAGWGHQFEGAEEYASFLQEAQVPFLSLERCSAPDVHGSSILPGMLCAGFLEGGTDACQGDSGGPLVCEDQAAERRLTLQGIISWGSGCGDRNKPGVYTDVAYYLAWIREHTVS
Source text: as §1

B1: monoclonal anti-human fXII antibody AB042 (antibody, V domains shown)
VH: EVQLQQSGAELVRPGASVKLSCTASGFNIKDDYMHWVKQRPEQGLEWIGWIDPENGDTEYASKFQGKATITSDTSSNTAYLQLSSLTSEDTAVYYCTENYYGSSFFAYWGQGTLVTVSA
VL: DIVMTQATPSVPVTPGESVSISCRSSKSLLHSNGITYLYWFLQRPGQSPQRLIYYMSNLASGVPDRFSGRGSGTDFTLRISRVEAEDVGVYYCMQSLEYPYTFGGGTKLEIKR
notes: Mouse hybridoma IgG raised in fXII knockout mice immunized with human fXII
binding result [1]: no binding | binding result [2]: no binding
